Key:
[1] = biological target: T1, Giardia lamblia trimethylguanosine synthase 2 (GlaTgs2) variant GlaTgs2-V34A (V34A), SEQ ID NO: 4 (Giardia duodenalis, UniProt A8BW33, V34A); assay: Enzymatic parameters of GlaTgs2-V34A with respect to AdoPropen and AdoMet (HPLC-coupled activity assay); assay type: biochemical
T1 construct: HPLC-coupled cap N2 methyl/alkyl transfer assay with m7GpppA, helper enzymes MTAN and LuxS
Protocol: (§1) The transfer of the propenyl (AdoPropen), pentenynyl (AdoEnYn) and benzyl (AdoBenzyl) residues carried by the synthetically produced AdoMet analogues onto the N2 atom of the guanosine of m^7GpppA (A=adenine) enzymatically catalysed by the WT-GlaTgs2 (SEQ ID NO: 1) and the proteins of the invention in accordance with SEQ ID NOs: 4-10 was investigated with the aid of a HPLC-coupled activity assay.
(§2) Reaction buffer 2: 50 mM Tris; 10 mM MgCl2; 100 mM NH4OAc; pH 8.4
(§3) MTAN stands for 5′-methylthioadenosine/S-adenosylhomocysteine nucleosidase. LuxS stands for S-ribosylhomocysteine lyase.
(§4) The quantities were adjusted in proportion for larger samples of 10 or 20 μL. The quantity of AdoMet analogue used was matched such that the area of the peak in the chromatogram for a diastereoisomer of the AdoMet analogue corresponded to the area of the signal caused by m^7GpppA. The reaction was in general stopped directly after starting the reaction (t0) and after three hours at 37° C. (t180) and examined using analytical HPLC as well as MALDI-TOF.

[2] = tested on: C=CC[S+](CCC(N)C(=O)O)C[C@H]1O[C@@H](n2cnc3c(N)ncnc32)C(O)[C@H]1O; assay: Enzymatic parameters of GlaTgs2-WT with respect to AdoPropen (HPLC-coupled activity assay); assay type: biochemical, Giardia lamblia; details: other: with respect to AdoPropen, pH 8.4, 37.0 °C
Protocol: as §1, §2, §3, §4

m^7GpppA = assay: HPLC-coupled activity assay: enzymatic transfer of the residue of an AdoMet analogue onto N2 of the guanosine of m^7GpppA; assay type: biochemical; details: for m^7GpppA transformed: same quantity of enzyme; for TTN: Total Turnover Number
Protocol: as §1, §2, §3, §4

[3] = Thermostability (T50, 15 min incubation, residual activity, Boltzmann fit); assay type: physicochemical; details: for T50 (thermostability): 15 minutes incubation, Table 4; for T50 (15 min): temperature at which enzyme loses 50% of its activity after 15 minutes incubation, Table 3
Protocol: The stability of a protein characterizes its ability to tolerate denaturing influences, such as an increase in the environmental temperature, within certain limits and to maintain the native conformation. The T50 value can be used as a measure of the thermostability.
is the temperature at which an enzyme loses 50% of its activity after 15 minutes incubation. In order to determine the T50 value, the protein to be analysed is heated for 15 minutes to different temperatures in a thermocycler while a sample of the protein is incubated on ice. Next, activity tests are carried out with the previously heated proteins. […] After normalizing the values,
can be obtained using a Boltzmann fit and “Origin” software.

[4] = with respect to AdoPropen, Table 3

Molecule	TTN (m^7GpppA; AdoPropen, Table 2)	T50 (thermostability) [3]	also measured
C=CC[S+](CCC(N)C(=O)O)C[C@H]1O[C@@H](n2cnc3c(N)ncnc32)C(O)C1O (stereo in doubt) [AdoPropen, 5′-[(S)-[(3S)-3-amino-3-carboxypropyl]prop-2-enylsulphonio]-5′-deoxyadenosine]	–	–	affinity for AdoPropen ([1]; compared with the wild type enzyme GlaTgs2-WT): higher affinity; kcat ([1]; with respect to AdoPropen, GlaTgs2-V34A): 0.003 ± 0.0013 s⁻¹
Giardia lamblia trimethylguanosine synthase 2 (GlaTgs2-WT), wild type, SEQ ID NO: 1 (Giardia lamblia ATCC 50803)	–	–	Km [2]: 151 ± 19 μM μM; kcat [2]: 0.0015 ± 0.0013 s⁻¹
GlaTgs2-V34A: GlaTgs2 variant, valine at position 34 replaced by alanine, SEQ ID NO: 4 (protein, listed as Giardia lamblia) MSTWLLDSKCVERMKWLFSDLPEEKRVMIKMNEAAFFSVTPAVYADEVARMMRTVLALLGKPPYAVIDGTACVGGDTRLLAKHFDMTVAIERDPETYALLQDNLTTWGVDAKTISGDTAALIPQFWTLIGAVATFSLYLDPPWGGVDYRSQTDIQLTLGSLAVEDVVNRAFEAHLSMKLAVLKLPRNYNCGYLFRKLGKHEVFRITQGNFFVFFVARRGSRVKEHGRTAMLQLRKAREEAKARSEETKEDGETRGSGE	10 ± 2	40.4 ± 0.2	transfer of benzyl (m^7GpppA; AdoBenzyl as AdoMet analogue): a transfer of benzyl was observed; m^7GpppA transformed (m^7GpppA; AdoEnYn): 10%; m^7GpppA transformed (m^7GpppA; AdoPropen): 95%; TTN (m^7GpppA; [4]): 10; T50 (15 min) [3]: 40.4 ± 0.2 °C
GlaTgs2-V34A, D76T: GlaTgs2 variant with exchanges V34A and D76T, SEQ ID NO: 8 (protein, listed as Giardia lamblia) MSTWLLDSKCVERMKWLFSDLPEEKRVMIKMNEAAFFSVTPAVYADEVARMMRTVLALLGKPPYAVIDGTACVGGLTRLLAKHFDMTVAIERDPETYALLQDNLTTWGVDAKTISGDTAALIPQFWTLIGAVATFSLYLDPPWGGVDYRSQTDIQLTLGSLAVEDVVNRAFEAHLSMKLAVLKLPRNYNCGYLFRKLGKHEVFRITQGNFFVFFVARRGSRVKEHGRTAMLQLRKAREEAKARSEETKEDGETRGSGE	2	–	–
GlaTgs2-V34A, D76V: GlaTgs2 variant with exchanges V34A and D76V, SEQ ID NO: 9 (protein, listed as Giardia lamblia) MSTWLLDSKCVERMKWLFSDLPEEKRVMIKMNEAAFFSVTPAVYADEVARMMRTVLALLGKPPYAVIDGTACVGGVTRLLAKHFDMTVAIERDPETYALLQDNLTTWGVDAKTISGDTAALIPQFWTLIGAVATFSLYLDPPWGGVDYRSQTDIQLTLGSLAVEDVVNRAFEAHLSMKLAVLKLPRNYNCGYLFRKLGKHEVFRITQGNFFVFFVARRGSRVKEHGRTAMLQLRKAREEAKARSEETKEDGETRGSGE	1	–	–
GlaTgs2-V34A, R92A: GlaTgs2 variant with exchanges V34A and R92A, SEQ ID NO: 10 (protein, listed as Giardia lamblia) MSTWLLDSKCVERMKWLFSDLPEEKRVMIKMNEAAFFSVTPAVYADEVARMMRTVLALLGKPPYAVIDGTACVGGDTRLLAKHFDMTVAIEADPETYALLQDNLTTWGVDAKTISGDTAALIPQFWTLIGAVATFSLYLDPPWGGVDYRSQTDIQLTLGSLAVEDVVNRAFEAHLSMKLAVLKLPRNYNCGYLFRKLGKHEVFRITQGNFFVFFVARRGSRVKEHGRTAMLQLRKAREEAKARSEETKEDGETRGSGE	8	–	–
GlaTgs2-WT: wild type trimethylguanosine synthase 2 from Giardia lamblia, 258 amino acids, SEQ ID NO: 1 (protein, listed as Giardia lamblia) MSTWLLDSKCVERMKWLFSDLPEEKRVMIKMNEVAFFSVTPAVYADEVARMMRTVLALLGKPPYAVIDGTACVGGDTRLLAKHFDMTVAIERDPETYALLQDNLTTWGVDAKTISGDTAALIPQFWTLIGAVATFSLYLDPPWGGVDYRSQTDIQLTLGSLAVEDVVNRAFEAHLSMKLAVLKLPRNYNCGYLFRKLGKHEVFRITQGNFFVFFVARRGSRVKEHGRTAMLQLRKAREEAKARSEETKEDGETRGSGE	3 ± 2	39.9 ± 0.2	TTN (m^7GpppA; [4]): 3; T50 (15 min) [3]: 39.9 ± 0.2 °C
GlaTgs2-V34G: GlaTgs2 variant, valine at position 34 replaced by glycine, SEQ ID NO: 5 (protein, listed as Giardia lamblia) MSTWLLDSKCVERMKWLFSDLPEEKRVMIKMNEGAFFSVTPAVYADEVARMMRTVLALLGKPPYAVIDGTACVGGDTRLLAKHFDMTVAIERDPETYALLQDNLTTWGVDAKTISGDTAALIPQFWTLIGAVATFSLYLDPPWGGVDYRSQTDIQLTLGSLAVEDVVNRAFEAHLSMKLAVLKLPRNYNCGYLFRKLGKHEVFRITQGNFFVFFVARRGSRVKEHGRTAMLQLRKAREEAKARSEETKEDGETRGSGE	5	44.8	–
GlaTgs2-V34M: GlaTgs2 variant, valine at position 34 replaced by methionine, SEQ ID NO: 6 (protein, listed as Giardia lamblia) MSTWLLDSKCVERMKWLFSDLPEEKRVMIKMNEMAFFSVTPAVYADEVARMMRTVLALLGKPPYAVIDGTACVGGDTRLLAKHFDMTVAIERDPETYALLQDNLTTWGVDAKTISGDTAALIPQFWTLIGAVATFSLYLDPPWGGVDYRSQTDIQLTLGSLAVEDVVNRAFEAHLSMKLAVLKLPRNYNCGYLFRKLGKHEVFRITQGNFFVFFVARRGSRVKEHGRTAMLQLRKAREEAKARSEETKEDGETRGSGE	6	49.0	–
GlaTgs2-V34A, D76L: GlaTgs2 variant with exchanges V34A and D76L, SEQ ID NO: 7 (protein, listed as Giardia lamblia) MSTWLLDSKCVERMKWLFSDLPEEKRVMIKMNEAAFFSVTPAVYADEVARMMRTVLALLGKPPYAVIDGTACVGGTTRLLAKHFDMTVAIERDPETYALLQDNLTTWGVDAKTISGDTAALIPQFWTLIGAVATFSLYLDPPWGGVDYRSQTDIQLTLGSLAVEDVVNRAFEAHLSMKLAVLKLPRNYNCGYLFRKLGKHEVFRITQGNFFVFFVARRGSRVKEHGRTAMLQLRKAREEAKARSEETKEDGETRGSGE	1	–	–

Reference: patent publication US20160032257A1, “AGENT AND METHOD FOR MODIFYING THE 5' CAP OF RNA” (UNIVERSITÄT HAMBURG, priority 2012, published 2016)
